Source: article PMC8633249

What was measured:
[1] = target: PAM_(NS88.2), plasminogen-binding Group A streptococcal M-protein from GAS isolate NS88.2 (Streptococcus pyogenes (GAS isolate NS88.2)); experiment: ITC; K2hPg (syringe) titrated into PAM_(NS88.2) (6 µM as monomer, cell); 50 mM sodium phosphate/100 mM NaCl, pH 7.4; 37°C; hetero-association model (Sedphat)
[2] = target: AGL55, 55-mer A-domain peptide of PAM_(NS88.2) (Streptococcus pyogenes (GAS isolate NS88.2)); experiment: ITC; K2hPg (syringe) titrated into AGL55 (30 µM, cell); 50 mM sodium phosphate/100 mM NaCl, pH 7.4; 25°C; hetero-association model A + B (Sedphat)
[3] = target: AGL55, 55-mer A-domain peptide of PAM_(NS88.2) (Streptococcus pyogenes (GAS isolate NS88.2)); experiment: ITC; K2hPg (syringe) titrated into AGL55 (30 µM, cell); 50 mM sodium phosphate/100 mM NaCl, pH 7.4; 4°C; hetero-association model A + B (Sedphat)
[4] = target: PAM_(NS88.2), plasminogen-binding Group A streptococcal M-protein from GAS isolate NS88.2 (Streptococcus pyogenes (GAS isolate NS88.2)); experiment: ITC; K2hPg (syringe) titrated into PAM_(NS88.2) (6 µM as monomer, cell); 50 mM sodium phosphate/100 mM NaCl, pH 7.4; 25°C; only the final inflection fitted, hetero-association model A + B (Sedphat)
[5] = target: PAM_(NS88.2), plasminogen-binding Group A streptococcal M-protein from GAS isolate NS88.2 (Streptococcus pyogenes (GAS isolate NS88.2)); experiment: AUC; sedimentation equilibrium of the K2hPg/PAM_(NS88.2) complex isolated by gel filtration, at the temperature of its isolation (4°C, 25°C, 37°C); 50 mM sodium phosphate/100 mM NaCl, pH 7.4
[6] = target: AGL55, 55-mer A-domain peptide of PAM_(NS88.2) (Streptococcus pyogenes (GAS isolate NS88.2)); experiment: ITC; K2hPg (syringe) titrated into AGL55 (30 µM, cell); 50 mM sodium phosphate/100 mM NaCl, pH 7.4; 37°C; hetero-association model A + B (Sedphat)
[7] = target: PAM_(NS88.2), plasminogen-binding Group A streptococcal M-protein from GAS isolate NS88.2 (Streptococcus pyogenes (GAS isolate NS88.2)); experiment: ITC; K2hPg (syringe) titrated into PAM_(NS88.2) (6 µM as monomer, cell); 50 mM sodium phosphate/100 mM NaCl, pH 7.4; 4°C; hetero-association model of K2hPg and PAM monomer (Sedphat)
[8] = target: AGL55, 55-mer A-domain peptide of PAM_(NS88.2) (Streptococcus pyogenes (GAS isolate NS88.2)); experiment: SEC-MALS; K2hPg/AGL55 mixture on a Wyatt 030S5 column, UV, RI and MALS detection, protein conjugate analysis; 50 mM Na-phosphate/100 mM NaCl, pH 7.4; 25°C
[9] = target: PAM_(NS88.2), plasminogen-binding Group A streptococcal M-protein from GAS isolate NS88.2 (Streptococcus pyogenes (GAS isolate NS88.2)); experiment: AUC; apo-PAM_(NS88.2), sedimentation equilibrium at two rotor speeds (<0.2 mg/ml) and sedimentation velocity (6 µM); 50 mM sodium phosphate/100 mM NaCl, pH 7.4; 4°C, 15°C and 25°C

Substance | Kd [1] | dH [1] | stoichiometry N [2] | stoichiometry N [3] | Kd [4] | stoichiometry N [5] | stoichiometry N [6] | Kd [7] | dH [7] | stoichiometry N [8] | stoichiometry N [9]
K2hPg, kringle-2 domain of human plasminogen (from UniProt P00747 183-262) (domain or fragment) | 181 nM | -37 kcal/mol | 1 m:m | 1 m:m | 2.7 nM | 1 m:m | 1 m:m | 0.7 nM | -13.7 kcal/mol | 1 m:m | 
PAM_(NS88.2), plasminogen-binding Group A streptococcal M-protein from GAS isolate NS88.2 (natural protein) |  |  |  |  |  |  |  |  |  |  | 2
